{
  "source": "paper doi:10.1101/2023.05.16.540868",
  "about": "(bioRxiv, 2023)",
  "proteins": {"B1": {"name": "SPD-5(541-677) (domain or fragment, C. elegans, UniProt P91349 541-677, looked up)", "chain": "SQSHIPILHDMQQILDSSAMFLEGQHDVAVNVEQMQEKMSQIREALARLFERLKSSAALFEEILERMGSSDPNADKIKKMKLAFETSINDKLNVSAILEAAEKDLHNMSLNFSILEKSIVSQAAEASRRFTIAPDAE"}, "B2": {"name": "SPD-5(541-677) phosphorylated by PLK-1(CA) (domain or fragment, C. elegans, UniProt P91349 541-677, looked up)", "chain": "B1 chain", "modifications": "phosphorylated by PLK-1(CA) (verified by gel migration shift and MS); sites not printed for this fragment"}, "B3": {"name": "SPD-5(541-677) R592K (domain or fragment, C. elegans, UniProt P91349 541-677, looked up)", "chain": "B1 chain with R52K"}},
  "key": {"[1]": {"molecular_target": "the molecule itself", "assay": "mass photometry"}, "[2]": {"molecular_target": "the molecule itself", "assay": "mass photometry", "remark": "listed apart in the source"}},
  "note": "Where a chain is given by its changes, count along the chain named. In names and notes the source's numbering stands. Read-outs that look alike come from different tables or passages of the source.",
  "data": [
    {"protein": "B1", "values": [
      {"measurement": "stoichiometry N", "setting": "[1]", "value": 2}
    ]},
    {"protein": "B2", "values": [
      {"measurement": "stoichiometry N", "setting": "[2]", "value": 2}
    ]},
    {"protein": "B3", "values": [
      {"measurement": "stoichiometry N", "setting": "[1]", "value": 2}
    ]}
  ]
}
